What was measured:
[1] = molecular target: T1, human RANK-L (human, UniProt O14788 140-317, limits assumed); experiment: AlphaScreen, biotin-hRANK-L / RANK-huFc beads
T1 construct: Soluble protein, used coated, biotinylated or labelled in ELISA, AlphaScreen, FMAT and Biacore; also called hRANK-L; soluble human RANK-L
T1 sequence (looked up): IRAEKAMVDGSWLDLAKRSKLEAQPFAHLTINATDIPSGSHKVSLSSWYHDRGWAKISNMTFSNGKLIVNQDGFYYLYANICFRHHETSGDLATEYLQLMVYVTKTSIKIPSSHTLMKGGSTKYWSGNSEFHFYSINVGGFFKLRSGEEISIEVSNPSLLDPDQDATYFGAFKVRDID

[2] = molecular target: T1, human RANK-L; experiment: SPR Biacore 3000, hRANK-L on CM5, 100 nM Nanobody; only indicative (one concentration)
Experimental: (§1) Binding kinetics of the humanized versions of Nanobodu RANL13 were also analysed by Surface Plasmon Resonance (Biacore 3000). […] Nanobody binding was assessed at one concentration (100 nM). Each Nanobody was injected for 4 minutes at a flow rate of 45 μl/min to allow binding to chip-bound antigen. Next, binding buffer without Nanobody was sent over the chip at the same flow rate to allow spontaneous dissociation of bound Nanobody.

[3] = molecular target: T1, human RANK-L; experiment: FMAT, ALEXA647-hRANK-L / RANK on HEK293T cells
[4] = molecular target: T1, human RANK-L; experiment: SPR Biacore 3000, hRANK-L on CM5, 100 nM Nanobody
Experimental: as §1

[5] = molecular target: T1, human RANK-L; experiment: AlphaScreen, biotin-hRANK-L / RANK-huFc beads; remark: listed apart in the source
[6] = molecular target: T2, mouse RANK-L (mouse, UniProt O35235 158-316, limits assumed); experiment: ELISA, set-up as for human RANK-L
T2 construct: also called murine RANK-L
T2 sequence (looked up): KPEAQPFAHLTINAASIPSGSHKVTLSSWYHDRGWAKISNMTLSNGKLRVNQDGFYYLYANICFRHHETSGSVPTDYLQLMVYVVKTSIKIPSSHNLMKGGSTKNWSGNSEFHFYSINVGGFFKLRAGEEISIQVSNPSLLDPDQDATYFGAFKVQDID
Experimental: (§2) Therefore 2 μg/ml neutravidin was coated overnight at 4° C. The plates were washed 5 times with 300 μl PBS and then blocked with […] 1% casein/PBS for 2 hours at room temperature. […] After extensive washing with PBS, varying concentrations of Nanobodies starting from 500 nM to 160 pM diluted in 1% casein/PBS were added to the wells and the plates were incubated for 1 hour at room temperature. Bound Nanobodies were detected by subsequent incubations of a primary mouse anti-myc antibody and a secondary anti mouse-HRP conjugate (DAKO, Glostrup, Denmark) and using TMB-H2O2 (Pierce, Rockford, Ill., USA) substrate cocktail. The reaction was stopped with H₂SO₄ and the OD was read at 450 nm.

[7] = molecular target: T1, human RANK-L; experiment: AlphaScreen, biotin-hRANK-L / RANK-huFc beads; remark: listed apart in the source
[8] = molecular target: T3, human RANK-L, full length, membrane-bound, expressed on HEK293T cells (human, UniProt O14788 1-317); experiment: FACS, HEK293T with human RANK-L, 16 pM Nanobody
T3 construct: whole, on cells; also called hRANK-L
T3 sequence (looked up): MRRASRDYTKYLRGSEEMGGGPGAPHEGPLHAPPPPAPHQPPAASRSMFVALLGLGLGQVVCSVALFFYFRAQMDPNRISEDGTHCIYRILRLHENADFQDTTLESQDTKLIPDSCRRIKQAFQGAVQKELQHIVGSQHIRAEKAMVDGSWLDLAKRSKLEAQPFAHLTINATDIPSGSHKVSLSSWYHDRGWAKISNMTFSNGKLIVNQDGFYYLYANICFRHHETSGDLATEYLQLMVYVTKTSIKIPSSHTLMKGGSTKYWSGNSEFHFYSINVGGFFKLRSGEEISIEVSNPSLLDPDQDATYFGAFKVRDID
Experimental: (§3) Human embryonic kidney cells (HEK293T) were grown in Dulbecco's modified Eagles's medium supplemented with 10% fetal bovine serum (FBS), […] L-glutamine, 0.4 mM sodium pyruvate. […] After 48 hours, transfected cells were subjected to FACS analysis. […] Then cells were washed three times with FACS buffer. Bound Nanobodies were detected by subsequent incubations of a primary mouse anti Myc antibody (30 min at 4° C. (2 μg/ml)) and a second incubation with goat anti mouse-Phycoerythrin (PE) (Jackson Laboratories) for another 30 min at 4° C. Finally, after washing, the cells were resuspended in PBS+10% FBS+TO-PRO®-3 (5 nM) (Molecular Probes®, Invitrogen, Merelbeke, Belgium) and cell surface fluorescence expressed as mean PE fluorescence, was measured using flow cytometry.

[9] = molecular target: T1, human RANK-L; experiment: AlphaScreen, biotin-hRANK-L / RANK-huFc beads; remark: listed apart in the source
Experimental: To this mixture, the RANK acceptor beads and the streptavidin donor beads were added and further incubated for 1 hour at room temperature. Fluorescence was measured by reading plates on the EnVision Multilabel Plate Reader (Perkin Elmer) using an excitation wavelength of 680 nm and an emission wavelength of 520 nm.

[10] = molecular target: T3, human RANK-L, full length, …; experiment: FACS, HEK293T with human RANK-L, 2000 pM Nanobody
Experimental: as §3

[11] = molecular target: T3, human RANK-L, full length, …; experiment: FACS, HEK293T with human RANK-L, 400 pM Nanobody
Experimental: as §3

[12] = molecular target: T4, CD40 ligand (UniProt P29965 113-261, limits assumed); experiment: competition ELISA on RANK-L-coated plates, 1 nM Nanobody preincubated with the ligand
T4 sequence (looked up): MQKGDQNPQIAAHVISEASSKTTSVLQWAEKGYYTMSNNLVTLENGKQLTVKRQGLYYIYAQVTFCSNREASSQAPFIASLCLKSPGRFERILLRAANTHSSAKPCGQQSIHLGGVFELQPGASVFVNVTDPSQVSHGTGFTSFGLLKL

[13] = molecular target: T5, TRAIL (UniProt P50591 114-281, limits assumed); experiment: as above
T5 construct: also called tumor necrosis factor-related apoptosis inducing ligand
T5 sequence (P50591 114-281 limits assumed): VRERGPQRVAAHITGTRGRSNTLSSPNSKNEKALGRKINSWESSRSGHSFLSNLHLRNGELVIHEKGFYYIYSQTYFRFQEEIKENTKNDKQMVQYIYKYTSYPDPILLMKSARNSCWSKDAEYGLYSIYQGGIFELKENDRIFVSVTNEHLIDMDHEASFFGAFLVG

[14] = molecular target: T6, TNFα (UniProt P01375 77-233); experiment: as above
T6 construct: also called TNF-alpha
T6 sequence (P01375 77-233 limits assumed): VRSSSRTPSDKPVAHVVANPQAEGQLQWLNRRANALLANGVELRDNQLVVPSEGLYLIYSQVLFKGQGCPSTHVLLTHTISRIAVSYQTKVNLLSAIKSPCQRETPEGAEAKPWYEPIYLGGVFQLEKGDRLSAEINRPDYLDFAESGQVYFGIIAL

[15] = molecular target: T3, human RANK-L, full length, …; experiment: FACS, HEK293T with human RANK-L, 3.2 pM Nanobody
Experimental: as §3

[16] = molecular target: T3, human RANK-L, full length, …; experiment: FACS, HEK293T with human RANK-L, 80 pM Nanobody
Experimental: as §3

[17] = molecular target: T1, human RANK-L; experiment: ELISA (ED50), biotin-hRANK-L on neutravidin
Experimental: as §2

[18] = molecular target: T1, human RANK-L; experiment: AlphaScreen, biotin-hRANK-L / RANK-huFc beads; remark: listed apart in the source
[19] = molecular target: T1, human RANK-L; experiment: FMAT, ALEXA647-hRANK-L / RANK on HEK293T cells; remark: listed apart in the source

B1: RANKL13hum5 (VHH)
VHH: EVQLVESGGGLVQPGGSLRLSCAASGFTFSSYPMGWFRQAPGKGREFVSSITGSGGSTYYADSVKGRFTISRDNAKNTLYLQMNSLRPEDTAVYYCAAYIRPDTYLSRDYRKYDYWGQGTLVTVSS
- IC50 [1]: 0.091 nM
- Kd [2]: 0.26 nM
- kon [2]: 800000 M⁻¹ s⁻¹
- IC50 [3]: 0.137 nM
- koff [4]: 0.00021 s⁻¹
- IC50 [5]: 0.188 nM

B2: RANKL6 (VHH)
VHH: EVQLVESGGGLMQTGGSLRLSCAASGVTYSYYTASWFRQAPGKEREFVAAISPSGNTYYADSVKGRFTISRDNGKHTMYLQMNSLNPEDTAVYFCAIRATDSIYYASSYRHWGQGTQVTVSS
notes: not shown: c-myc and His6 tags
- binding result [6]: no binding (tested: 500 nM to 160 pM)
- IC50 [7]: 0.777 nM
- PE mean fluorescence [8]: 434
- IC50 [9]: 0.288 nM
- PE mean fluorescence [10]: 12800
- PE mean fluorescence [11]: 4580
- binding result [12]: no binding (tested: approximately 100 nM)
- binding result [13]: no binding (tested: approximately 100 nM)
- binding result [14]: no binding (tested: approximately 100 nM)
- PE mean fluorescence [15]: 347
- PE mean fluorescence [16]: 1700
- EC50 [17]: 0.385 nM

B3: RANKL9 (VHH)
VHH: EVQLVESGGGLVQAGGSLRLTCAASGRTFRSYAMGWFRQAPGKEREFVAAINYSGGSTNYADSVKGRFTISRDNAKNTLYLQMNSLEPEDTAVYYCAAGSGYASLSYYSTERAYTYWGQGTQVTVSS
notes: as for B2
- binding result [6]: no binding (tested: 500 nM to 160 pM)
- IC50 [7]: 0.341 nM
- PE mean fluorescence [8]: 1350
- IC50 [9]: 0.137 nM
- PE mean fluorescence [10]: 4860
- PE mean fluorescence [11]: 3360
- binding result [12]: no binding (tested: approximately 100 nM)
- binding result [13]: no binding (tested: approximately 100 nM)
- binding result [14]: no binding (tested: approximately 100 nM)
- IC50 [18]: 0.238 nM
- PE mean fluorescence [15]: 381
- IC50 [19]: 0.13 nM
- PE mean fluorescence [16]: 2280
- EC50 [17]: 0.542 nM

B4: RANKL18hum6 (VHH)
VHH: EVQLVESGGGLVQPGGSLRLSCAASGRTFSRSAMGWFRQAPGKGREFVGFITGSGGTTYYADSVKGRFTISRDNAQNPVYLQMNSLRPEDTAVYYCAVYRRTYISSTYSESSEYDYWGQGTLVTVSS
- IC50 [1]: 0.138 nM
- Kd [2]: 0.16 nM
- kon [2]: 500000 M⁻¹ s⁻¹
- IC50 [3]: 0.38 nM
- koff [4]: 6.72e-05 s⁻¹
- IC50 [5]: 0.087 nM

B5: RANKL91biv (VHH)
chain: EVQLVESGGGLVQAGGSLRLTCAASGRTFRSYAMGWFRQAPGKEREFVAAINYSGGSTNYADSVKGRFTISRDNAKNTLYLQMNSLEPEDTAVYYCAAGSGYASLSYYSTERAYTYWGQGTQVTVSSGGGGSGGGSEVQLVESGGGLVQAGGSLRLTCAASGRTFRSYAMGWFRQAPGKEREFVAAINYSGGSTNYADSVKGRFTISRDNAKNTLYLQMNSLEPEDTAVYYCAAGSGYASLSYYSTERAYTYWGQGTQVTVSS
notes: Bivalent Nanobody; also called RANKL9-9GS-RANKL9
- IC50 [18]: 0.153 nM
- IC50 [19]: 0.09 nM

B6: RANKL92biv (VHH)
chain: EVQLVESGGGLVQAGGSLRLTCAASGRTFRSYAMGWFRQAPGKEREFVAAINYSGGSTNYADSVKGRFTISRDNAKNTLYLQMNSLEPEDTAVYYCAAGSGYASLSYYSTERAYTYWGQGTQVTVSSGGGGSGGGGSGGGGSGGGGSEVQLVESGGGLVQAGGSLRLTCAASGRTFRSYAMGWFRQAPGKEREFVAAINYSGGSTNYADSVKGRFTISRDNAKNTLYLQMNSLEPEDTAVYYCAAGSGYASLSYYSTERAYTYWGQGTQVTVSS
notes: Bivalent Nanobody; also called RANKL9-20GS-RANKL9
- IC50 [18]: 0.07 nM
- IC50 [19]: 0.032 nM

B7: RANKL93biv (VHH)
chain: EVQLVESGGGLVQAGGSLRLTCAASGRTFRSYAMGWFRQAPGKEREFVAAINYSGGSTNYADSVKGRFTISRDNAKNTLYLQMNSLEPEDTAVYYCAAGSGYASLSYYSTERAYTYWGQGTQVTVSSGGGGSGGGGSGGGGSGGGGSGGGGSGGGGSEVQLVESGGGLVQAGGSLRLTCAASGRTFRSYAMGWFRQAPGKEREFVAAINYSGGSTNYADSVKGRFTISRDNAKNTLYLQMNSLEPEDTAVYYCAAGSGYASLSYYSTERAYTYWGQGTQVTVSS
notes: Bivalent Nanobody; also called RANKL9-30GS-RANKL9
- IC50 [18]: 0.066 nM
- IC50 [19]: 0.048 nM

B8: RANKL94biv (VHH)
chain: EVQLVESGGGLVQAGGSLRLTCAASGRTFRSYAMGWFRQAPGKEREFVAAINYSGGSTNYADSVKGRFTISRDNAKNTLYLQMNSLEPEDTAVYYCAAGSGYASLSYYSTERAYTYWGQGTQVTVSSGGGGSGGGGSGGGGSEVQLVESGGGLVQAGGSLRLTCAASGRTFRSYAMGWFRQAPGKEREFVAAINYSGGSTNYADSVKGRFTISRDNAKNTLYLQMNSLEPEDTAVYYCAAGSGYASLSYYSTERAYTYWGQGTQVTVSS
notes: Bivalent Nanobody; also called RANKL9-15GS-RANKL9
- IC50 [18]: 0.072 nM
- IC50 [19]: 0.03 nM
